# Source: patent US20220226493A1
# Target: CD117 on Kasumi-1 cells, P10721
# Assay: cell-based or functional assay
row,Binder,"% Efficacy (in vitro Kasumi cell killing assay, CellTiter-Glo)"
1,"CK6-SET0207 (CK6 with Fc modifications D265C H435A) (antibody, V domains shown) VH: QVQLVQSGAAVKKPGESLKISCKGSGYRFTSYWIGWVRQMPGKGLEWMGIIYPGDSDTRYSPSFQGQVTISAGKSISTAYLQWSSLKASDTAMYYCARHGRGYNGYEGAFDIWGQGTMVTVSS VL: AIQLTQSPSSLSASVGDRVTITCRASQGISSALAWYQQKPGKAPKLLIYDASSLESGVPSRFSGSGSGTDFTLTISSLQPEDFATYYCQQFNSYPLTFGGGTKVEIK",0%
2,"CK6-PBD (anti-CD117 antibody CK6 with Fc modification S239C conjugated to PBD) (antibody, DAR 1.7, V domains shown) VH: QVQLVQSGAAVKKPGESLKISCKGSGYRFTSYWIGWVRQMPGKGLEWMGIIYPGDSDTRYSPSFQGQVTISAGKSISTAYLQWSSLKASDTAMYYCARHGRGYNGYEGAFDIWGQGTMVTVSS VL: AIQLTQSPSSLSASVGDRVTITCRASQGISSALAWYQQKPGKAPKLLIYDASSLESGVPSRFSGSGSGTDFTLTISSLQPEDFATYYCQQFNSYPLTFGGGTKVEIK",60.7%
3,"CK6-PNU (anti-CD117 antibody CK6 with Fc modification S239C conjugated to PNU) (antibody, DAR 1.4, V domains shown) VH: QVQLVQSGAAVKKPGESLKISCKGSGYRFTSYWIGWVRQMPGKGLEWMGIIYPGDSDTRYSPSFQGQVTISAGKSISTAYLQWSSLKASDTAMYYCARHGRGYNGYEGAFDIWGQGTMVTVSS VL: AIQLTQSPSSLSASVGDRVTITCRASQGISSALAWYQQKPGKAPKLLIYDASSLESGVPSRFSGSGSGTDFTLTISSLQPEDFATYYCQQFNSYPLTFGGGTKVEIK",85.7%
4,"CK6-DM (anti-CD117 antibody CK6 with Fc modification S239C conjugated to duocarmycin) (antibody, DAR 1.65, V domains shown) VH: QVQLVQSGAAVKKPGESLKISCKGSGYRFTSYWIGWVRQMPGKGLEWMGIIYPGDSDTRYSPSFQGQVTISAGKSISTAYLQWSSLKASDTAMYYCARHGRGYNGYEGAFDIWGQGTMVTVSS VL: AIQLTQSPSSLSASVGDRVTITCRASQGISSALAWYQQKPGKAPKLLIYDASSLESGVPSRFSGSGSGTDFTLTISSLQPEDFATYYCQQFNSYPLTFGGGTKVEIK",0%
5,"CK6-D4 (anti-CD117 antibody CK6 with Fc modification S239C conjugated to calicheamicin) (antibody, DAR 1.72, V domains shown) VH: QVQLVQSGAAVKKPGESLKISCKGSGYRFTSYWIGWVRQMPGKGLEWMGIIYPGDSDTRYSPSFQGQVTISAGKSISTAYLQWSSLKASDTAMYYCARHGRGYNGYEGAFDIWGQGTMVTVSS VL: AIQLTQSPSSLSASVGDRVTITCRASQGISSALAWYQQKPGKAPKLLIYDASSLESGVPSRFSGSGSGTDFTLTISSLQPEDFATYYCQQFNSYPLTFGGGTKVEIK",0%
